Test results published in patent US20220372093A1 (CUE BIOPHARMA, published 2022).
Substitutions are numbered along the chain they refer to. Numbers in names are those of the source.

T1: TGF-β3 (Homo sapiens, UniProt P10600)
T1 construct: also called transforming growth factor beta 3
T1 sequence (TGF-β3 polypeptide, looked up): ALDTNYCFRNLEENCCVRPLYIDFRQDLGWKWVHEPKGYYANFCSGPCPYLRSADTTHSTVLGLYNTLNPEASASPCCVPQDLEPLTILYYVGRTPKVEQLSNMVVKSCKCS

B1: D32A (receptor)
TβRII polypeptide: IPPHVQKSVNNDMIVTDNNGAVKFPQLCKFCAVRFSTCDNQKSCMSNCSITSICEKPQEVCVAVWRKNDENITLETVCHDPKLPYHDFILEDAASPKCIMKEKKKPGETFFMCSCSSDECNDNIIFSEEYNTSNPDLLLVIFQ
notes: also called TβRII D32A
B2: E119A (receptor)
TβRII polypeptide: B1 TβRII polypeptide with A32D, E119A
notes: also called TβRII E119A
B3: L27A (receptor)
TβRII polypeptide: B1 TβRII polypeptide with L27A, A32D
notes: also called TβRII L27A
B4: I53A (receptor)
TβRII polypeptide: B1 TβRII polypeptide with A32D, I53A
notes: also called TβRII I53A
B5: D32N (receptor)
TβRII polypeptide: B1 TβRII polypeptide with A32N
notes: also called TβRII D32N
B6: S52A (receptor)
TβRII polypeptide: B1 TβRII polypeptide with A32D, S52A
notes: also called TβRII S52A
B7: I50A (receptor)
TβRII polypeptide: B1 TβRII polypeptide with A32D, I50A
notes: also called TβRII I50A
B8: V77A (receptor)
TβRII polypeptide: B1 TβRII polypeptide with A32D, V77A
notes: also called TβRII V77A
B9: E119Q (receptor)
TβRII polypeptide: B1 TβRII polypeptide with A32D, E119Q
notes: also called TβRII E119Q
B10: E55A (receptor)
TβRII polypeptide: B1 TβRII polypeptide with A32D, E55A
notes: also called TβRII E55A
B11: D118A (receptor)
TβRII polypeptide: B1 TβRII polypeptide with A32D, D118A
notes: also called TβRII D118A
B12: F30A (receptor)
TβRII polypeptide: B1 TβRII polypeptide with F30A, A32D
notes: also called TβRII F30A
B13: S52L (receptor)
TβRII polypeptide: B1 TβRII polypeptide with A32D, S52L
notes: also called TβRII S52L
B14: T51A (receptor)
TβRII polypeptide: B1 TβRII polypeptide with A32D, T51A
notes: also called TβRII T51A
B15: S49A (receptor)
TβRII polypeptide: B1 TβRII polypeptide with A32D, S49A
notes: also called TβRII S49A
B16: Δ14 (receptor)
TβRII polypeptide: VTDNNGAVKFPQLCKFCDVRFSTCDNQKSCMSNCSITSICEKPQEVCVAVWRKNDENITLETVCHDPKLPYHDFILEDAASPKCIMKEKKKPGETFFMCSCSSDECNDNIIFSEEYNTSNPD
notes: also called TβRII Δ14 (N-terminal aas 1-14 deleted)

target: T2, TGF-β1 (Homo sapiens, UniProt P01137); test: not stated on the sheet; drawn table of Kd of TβRII variants (paragraph 345 cites Groppe et al. 2008 and De Crescenzo et al. 2006)
T2 construct: also called transforming growth factor beta 1
T2 sequence (P01137 279-390 limits assumed): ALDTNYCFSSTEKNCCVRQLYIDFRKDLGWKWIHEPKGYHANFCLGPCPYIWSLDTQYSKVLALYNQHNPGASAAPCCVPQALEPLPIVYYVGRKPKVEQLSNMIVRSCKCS

Kd [µM]	Binder
3.52	B1
3.35	B2
7.97	B3
2.49	B4
5.9	B5
0.6	B6
7.96	B7
0.69	B8
5.95	B9
2.99	B10
1.51	B11
44	B12
154	B13
2.97	B14
0.79	B15
0.32	B16

target: T1, TGF-β3; test: as above

Kd [µM]	Binder
0.68	B16
